# Legend:
# [1] = system: LNCaP tumor-bearing SCID mice; assay: Ex vivo biodistribution in LNCaP tumor-bearing SCID mice
# Description: (§1) The biodistribution experiments with [^225Ac]Ac-mcp-M-alb-PSMA and [^225Ac]Ac-mcp-D-alb-PSMA were accomplished using LNCaP tumor-bearing mice. The SCID male mice (ENVIGO, Indianapolis, IN, USA) 8 weeks old were subcutaneously xenografted into the right flank with 10∙10^6 LNCaP cells (ATCC, Manassas, VA, USA) mixed with Matrigel Matrix (Corning Inc., Corning, NY, USA) at a 1:1 ratio. The tumor growth was periodically monitored by caliper-based measurements. When the tumor volume reached 200-300 mm^3 (i.e., approx. 6 weeks after the xenografting of the cells), the mice were enrolled in the biodistribution study. All experimental animals were housed in a specific-pathogen-free animal facility and all experiments with animals were performed in accordance with appropriate legal norms (Czech Law No. 246/1992) and with the approval of the Ministry of Education, Youth and Sports (MSMT-35035/2019-3) and approval of the Ethical committee of Faculty of Medicine and Dentistry, Palacky University in Olomouc. The number of animals was reduced as much as possible (n = 3-4 per group and time point) for in vivo experiments in order to strictly follow 3Rs principle.
# (§2) For the purpose of biodistribution studies, the ^225Ac-radioconjugates were diluted with saline. The diluted ^225Ac-radioconjugates were applied retro-orbitally (r.o.) to the experimental animals at a dose of 50 kBq per mouse corresponding to 10 pmol of the PSMA-inhibitor. The radioactivity application was carried out under 2% isoflurane anesthesia (FORANE, Abbott Laboratories, Abbott Park, IL, USA) to minimize animal suffering and to prevent animal motion. The mice were sacrificed by cervical dislocation 1, 4, 24, 48, 72, and 120 h (plus 168 h for [^225Ac]Ac-mcp-D-alb-PSMA) post-injection and organs of interest (blood, spleen, pancreas, stomach, intestine, kidneys, liver, heart, lungs, muscle, bone, and tumor) were collected. The organs were weighed, and their radioactivity was counted on an automatic gamma counter. The uptake of the ^225Ac-radioconjugates was expressed as a percentage of injected dose per gram of the corresponding organ (%ID/g). The area under the curve (AUC) was determined for both tested PSMA ligands from non-decay-corrected data obtained from the ex vivo biodistribution data of the tumors, kidneys, and blood.
# [2] = as above; conditions: mouse, in vivo, 50 kBq per mouse; for tissue uptake at 1 h: 1 h p.i.; for tissue uptake at 4 h: 4 h p.i.; for tissue uptake at 24 h: 24 h p.i.; for tissue uptake at 48 h: 48 h p.i.; for tissue uptake at 72 h: 72 h p.i.; for tissue uptake at 120 h: 120 h p.i.; for tissue uptake at 168 h: 168 h p.i.
# Description: as §1, §2
# [3] = non-decay corrected biodistribution data, mean ± SD
smiles,measurement,setting,value
"O=C(O)CC[C@H](NC(=O)N[C@@H](CCCCNC(=O)[C@H](Cc1ccc2ccccc2c1)NC(=O)[C@H]1CC[C@H](CNC(=O)[C@H](CCCCn2cc(COc3cc(CN4CCOCCOCCN(Cc5cc(OCc6cn(CCCC[C@H](NC(=O)[C@H](CCC(=O)O)NC(=O)CCCc7ccc(I)cc7)C(=O)NC[C@H]7CC[C@H](C(=O)N[C@@H](Cc8ccc9ccccc9c8)C(=O)NCCCC[C@H](NC(=O)N[C@@H](CCC(=O)O)C(=O)O)C(=O)O)CC7)nn6)cc(C(=O)O)n5)CCOCCOCC4)nc(C(=O)O)c3)nn2)NC(=O)[C@H](CCC(=O)O)NC(=O)CCCc2ccc(I)cc2)CC1)C(=O)O)C(=O)O [[^225Ac]Ac-mcp-D-alb-PSMA, metal not drawn]",tumor uptake (AV),[1]; 168 h p.i.,153.48 ± 37.76 %ID/g
same,AUC for tumor accumulation compared to monovalent counterpart,"[1]; mouse, in vivo",almost double
same,AUCTu-to-AUCBl,"[1]; mouse, in vivo",26
same,AUCTu-to-AUCKi,"[1]; mouse, in vivo",1.4
same,AUCTu-to-AUCLi,"[1]; mouse, in vivo",20
same,AUCTu-to-AUCLi ratio compared with monovalent version of the ligand,"[1]; mouse, in vivo",0.7 fold
same,blood clearance: duration of excretion,"[1]; mouse, in vivo",72 h
same,maximal tumor uptake compared to counterpart without dedicated albumin binder,"[1]; mouse, in vivo",twelve times higher
same,AUC Blood,[1]; [3],249 ± 10.4 %ID/g.h
same,AUC Kidneys,[1]; [3],4519 ± 193 %ID/g.h
same,AUC Liver,[1]; [3],328 ± 15.8 %ID/g.h
same,AUC Tumor,[1]; [3],6455 ± 411 %ID/g.h
same,tissue to tissue ratio,"[2]; male, SCID, total radioactivity",1420
same,tissue uptake at 1 h,[2]; blood uptake (AV),8.44 %ID/g
same,tissue uptake at 4 h,[2]; blood uptake (AV),6.5 %ID/g
same,tissue uptake at 24 h,[2]; blood uptake (AV),2.85 %ID/g
same,tissue uptake at 48 h,[2]; blood uptake (AV),1.22 %ID/g
same,tissue uptake at 72 h,[2]; blood uptake (AV),0.7 %ID/g
same,tissue uptake at 120 h,[2]; blood uptake (AV),0.2 %ID/g
same,tissue uptake at 168 h,[2]; blood uptake (AV),0.11 %ID/g
same,tissue uptake at 1 h,[2]; femur uptake (AV),0.84 %ID/g
same,tissue uptake at 4 h,[2]; femur uptake (AV),0.89 %ID/g
same,tissue uptake at 24 h,[2]; femur uptake (AV),0.74 %ID/g
same,tissue uptake at 48 h,[2]; femur uptake (AV),0.96 %ID/g
same,tissue uptake at 72 h,[2]; femur uptake (AV),0.87 %ID/g
same,tissue uptake at 120 h,[2]; femur uptake (AV),1.22 %ID/g
same,tissue uptake at 168 h,[2]; femur uptake (AV),1.3 %ID/g
same,tissue uptake at 1 h,[2]; heart uptake (AV),2.47 %ID/g
same,tissue uptake at 4 h,[2]; heart uptake (AV),2.32 %ID/g
same,tissue uptake at 24 h,[2]; heart uptake (AV),1.21 %ID/g
same,tissue uptake at 48 h,[2]; heart uptake (AV),0.94 %ID/g
same,tissue uptake at 72 h,[2]; heart uptake (AV),0.82 %ID/g
same,tissue uptake at 120 h,[2]; heart uptake (AV),0.88 %ID/g
same,tissue uptake at 168 h,[2]; heart uptake (AV),0.83 %ID/g
same,tissue uptake at 1 h,[2]; intestine uptake (AV),0.8 %ID/g
same,tissue uptake at 4 h,[2]; intestine uptake (AV),0.64 %ID/g
same,tissue uptake at 24 h,[2]; intestine uptake (AV),0.58 %ID/g
same,tissue uptake at 48 h,[2]; intestine uptake (AV),0.37 %ID/g
same,tissue uptake at 72 h,[2]; intestine uptake (AV),0.26 %ID/g
same,tissue uptake at 120 h,[2]; intestine uptake (AV),0.19 %ID/g
same,tissue uptake at 168 h,[2]; intestine uptake (AV),0.17 %ID/g
same,tissue uptake at 1 h,[2]; kidneys uptake (AV),9.23 %ID/g
same,tissue uptake at 4 h,[2]; kidneys uptake (AV),21.8 %ID/g
same,tissue uptake at 24 h,[2]; kidneys uptake (AV),43.7 %ID/g
same,tissue uptake at 48 h,[2]; kidneys uptake (AV),59.9 ± 6.46 %ID/g
same,tissue uptake at 72 h,[2]; kidneys uptake (AV),50.1 %ID/g
same,tissue uptake at 120 h,[2]; kidneys uptake (AV),37.6 %ID/g
same,tissue uptake at 168 h,[2]; kidneys uptake (AV),33.7 ± 9.57 %ID/g
same,tissue uptake at 1 h,[2]; liver uptake (AV),2.42 %ID/g
same,tissue uptake at 4 h,[2]; liver uptake (AV),2.45 %ID/g
same,tissue uptake at 24 h,[2]; liver uptake (AV),2.52 %ID/g
same,tissue uptake at 48 h,[2]; liver uptake (AV),3.73 %ID/g
same,tissue uptake at 72 h,[2]; liver uptake (AV),3.39 %ID/g
same,tissue uptake at 120 h,[2]; liver uptake (AV),3.9 %ID/g
same,tissue uptake at 168 h,[2]; liver uptake (AV),4.31 %ID/g
same,tissue uptake at 1 h,[2]; lung uptake (AV),5.67 %ID/g
same,tissue uptake at 4 h,[2]; lung uptake (AV),4.57 %ID/g
same,tissue uptake at 24 h,[2]; lung uptake (AV),2.3 %ID/g
same,tissue uptake at 48 h,[2]; lung uptake (AV),2.75 %ID/g
same,tissue uptake at 72 h,[2]; lung uptake (AV),2.98 %ID/g
same,tissue uptake at 120 h,[2]; lung uptake (AV),7.5 %ID/g
same,tissue uptake at 168 h,[2]; lung uptake (AV),4.95 %ID/g
same,tissue uptake,[2]; maximal uptake in spleen,11.4 ± 2.89 %ID/g
same,tissue uptake at 1 h,[2]; muscle uptake (AV),0.49 %ID/g
same,tissue uptake at 4 h,[2]; muscle uptake (AV),0.58 %ID/g
same,tissue uptake at 24 h,[2]; muscle uptake (AV),0.28 %ID/g
same,tissue uptake at 48 h,[2]; muscle uptake (AV),0.29 %ID/g
same,tissue uptake at 72 h,[2]; muscle uptake (AV),0.2 %ID/g
same,tissue uptake at 120 h,[2]; muscle uptake (AV),0.24 %ID/g
same,tissue uptake at 168 h,[2]; muscle uptake (AV),0.22 %ID/g
same,tissue uptake at 1 h,[2]; pancreas uptake (AV),0.68 %ID/g
same,tissue uptake at 4 h,[2]; pancreas uptake (AV),0.58 %ID/g
same,tissue uptake at 24 h,[2]; pancreas uptake (AV),0.5 %ID/g
same,tissue uptake at 48 h,[2]; pancreas uptake (AV),0.35 %ID/g
same,tissue uptake at 72 h,[2]; pancreas uptake (AV),0.39 %ID/g
same,tissue uptake at 120 h,[2]; pancreas uptake (AV),0.42 %ID/g
same,tissue uptake at 168 h,[2]; pancreas uptake (AV),0.37 %ID/g
same,tissue uptake at 1 h,[2]; spleen uptake (AV),7.11 %ID/g
same,tissue uptake at 4 h,[2]; spleen uptake (AV),6.21 %ID/g
same,tissue uptake at 24 h,[2]; spleen uptake (AV),5.24 %ID/g
same,tissue uptake at 48 h,[2]; spleen uptake (AV),8.33 %ID/g
same,tissue uptake at 72 h,[2]; spleen uptake (AV),10.2 %ID/g
same,tissue uptake at 120 h,[2]; spleen uptake (AV),10 %ID/g
same,tissue uptake at 168 h,[2]; spleen uptake (AV),11.4 %ID/g
same,tissue uptake at 1 h,[2]; stomach uptake (AV),0.98 %ID/g
same,tissue uptake at 4 h,[2]; stomach uptake (AV),0.59 %ID/g
same,tissue uptake at 24 h,[2]; stomach uptake (AV),0.61 %ID/g
same,tissue uptake at 48 h,[2]; stomach uptake (AV),0.4 %ID/g
same,tissue uptake at 72 h,[2]; stomach uptake (AV),0.27 %ID/g
same,tissue uptake at 120 h,[2]; stomach uptake (AV),0.34 %ID/g
same,tissue uptake at 168 h,[2]; stomach uptake (AV),0.27 %ID/g
same,tissue uptake at 1 h,[2]; tumor uptake (AV),3.35 %ID/g
same,tissue uptake at 4 h,[2]; tumor uptake (AV),10.6 %ID/g
same,tissue uptake at 24 h,[2]; tumor uptake (AV),27.6 %ID/g
same,tissue uptake at 48 h,[2]; tumor uptake (AV),57.4 %ID/g
same,tissue uptake at 72 h,[2]; tumor uptake (AV),86.4 %ID/g
same,tissue uptake at 120 h,[2]; tumor uptake (AV),120 %ID/g
same,tissue uptake at 168 h,[2]; tumor uptake (AV),127 %ID/g
